Assays:
[1] = target: HLA-B*15:42; experiment: IEDB peptide-MHC binding, purified MHC/competitive/fluorescence; filed as Kd, often an IC50 or EC50 that approximates it; ≥ and ≤ were set here for values at or beyond the usual limits of such assays
[2] = target: HLA-B*83:01; experiment: as above
[3] = target: HLA-B*45:06; experiment: as above
[4] = target: HLA-C*04:01; experiment: as above; conditions: source organism: Salmonella enterica subsp. enterica serovar Typhi
[5] = target: HLA-B*40:01; experiment: as above; conditions: source organism: Salmonella enterica subsp. enterica serovar Typhi
[6] = target: HLA-C*06:02; experiment: IEDB peptide-MHC binding, purified MHC/direct/fluorescence; filed as Kd, often an IC50 or EC50 that approximates it; ≥ and ≤ were set here for values at or beyond the usual limits of such assays
[7] = target: HLA-A*24:03; experiment: as above; conditions: source organism: Mammarenavirus lassaense
[8] = target: HLA-C*04:01; experiment: as above
[9] = target: HLA-B*73:01; experiment: IEDB peptide-MHC binding, purified MHC/competitive/fluorescence; filed as Kd, often an IC50 or EC50 that approximates it; ≥ and ≤ were set here for values at or beyond the usual limits of such assays
[10] = target: HLA-A*26:01; experiment: IEDB peptide-MHC binding, purified MHC/direct/fluorescence; filed as Kd, often an IC50 or EC50 that approximates it; ≥ and ≤ were set here for values at or beyond the usual limits of such assays
[11] = target: HLA-A*30:01; experiment: as above; conditions: source organism: Stutzerimonas stutzeri
[12] = target: HLA-A*02:01; experiment: as above
[13] = target: HLA-B*15:01; experiment: as above; conditions: source organism: Stutzerimonas stutzeri
[14] = target: HLA-B*27:05; experiment: as above
[15] = target: HLA-A*31:01; experiment: as above
[16] = target: HLA-B*08:01; experiment: as above
[17] = target: HLA-A*01:01; experiment: as above
[18] = target: HLA-B*07:02; experiment: as above; conditions: source organism: Stutzerimonas stutzeri
[19] = target: HLA-A*69:01; experiment: as above
[20] = target: HLA-B*58:01; experiment: as above
[21] = target: HLA-B*40:01; experiment: as above
[22] = target: HLA-B*35:01; experiment: IEDB peptide-MHC binding, cellular MHC/competitive/fluorescence; ≥ and ≤ were set here for values at or beyond the usual limits of such assays; conditions: source organism: Mycobacterium tuberculosis H37Rv
[23] = target: HLA-A*32:15; experiment: IEDB peptide-MHC binding, purified MHC/competitive/fluorescence; filed as Kd, often an IC50 or EC50 that approximates it; ≥ and ≤ were set here for values at or beyond the usual limits of such assays; conditions: source organism: Shewanella sp. W3-18-1
[24] = target: HLA-A*32:07; experiment: as above; conditions: source organism: Shewanella sp. W3-18-1
[25] = target: HLA-C*05:01; experiment: IEDB peptide-MHC binding, purified MHC/direct/fluorescence; filed as Kd, often an IC50 or EC50 that approximates it; ≥ and ≤ were set here for values at or beyond the usual limits of such assays; conditions: source organism: Shewanella sp. W3-18-1
[26] = target: HLA-A*24:02; experiment: IEDB peptide-MHC binding, purified MHC/competitive/fluorescence; filed as Kd, often an IC50 or EC50 that approximates it; ≥ and ≤ were set here for values at or beyond the usual limits of such assays; conditions: source organism: Campylobacter jejuni
[27] = target: HLA-C*07:02; experiment: IEDB peptide-MHC binding, purified MHC/direct/fluorescence; filed as Kd, often an IC50 or EC50 that approximates it; ≥ and ≤ were set here for values at or beyond the usual limits of such assays; conditions: source organism: Campylobacter jejuni
[28] = target: HLA-A*02:01; experiment: IEDB peptide-MHC binding, cellular MHC/competitive/fluorescence; ≥ and ≤ were set here for values at or beyond the usual limits of such assays; conditions: source organism: Mycobacterium tuberculosis
[29] = target: HLA-B*15:01; experiment: IEDB peptide-MHC binding, purified MHC/competitive/fluorescence; filed as Kd, often an IC50 or EC50 that approximates it; ≥ and ≤ were set here for values at or beyond the usual limits of such assays; conditions: source organism: Mycobacterium tuberculosis variant bovis BCG str. Pasteur 1173P2
[30] = target: HLA-B*39:01; experiment: IEDB peptide-MHC binding, purified MHC/direct/fluorescence; filed as Kd, often an IC50 or EC50 that approximates it; ≥ and ≤ were set here for values at or beyond the usual limits of such assays; conditions: source organism: Mycobacterium tuberculosis str. Haarlem
[31] = target: HLA-B*15:17; experiment: as above; conditions: source organism: Mycobacterium tuberculosis
[32] = target: HLA-B*18:01; experiment: as above; conditions: source organism: Mycobacterium tuberculosis
[33] = target: HLA-B*48:01; experiment: as above; conditions: source organism: Mycobacterium tuberculosis
[34] = target: HLA-B*46:01; experiment: as above; conditions: source organism: Mycobacterium tuberculosis
[35] = target: HLA-B*51:01; experiment: as above; conditions: source organism: Mycobacterium tuberculosis
[36] = target: HLA-A*11:01; experiment: as above; conditions: source organism: Mycobacterium tuberculosis
[37] = target: HLA-B*08:02; experiment: as above; conditions: source organism: Mycobacterium tuberculosis str. Haarlem
[38] = target: HLA-A*03:01; experiment: as above; conditions: source organism: Mycobacterium tuberculosis
[39] = target: HLA-B*38:01; experiment: as above; conditions: source organism: Mycobacterium tuberculosis str. Haarlem
[40] = target: HLA-B*57:01; experiment: as above; conditions: source organism: Mycobacterium tuberculosis
[41] = target: HLA-B*15:09; experiment: as above; conditions: source organism: Mycobacterium tuberculosis str. Haarlem
[42] = target: HLA-B*27:05; experiment: IEDB peptide-MHC binding, purified MHC/competitive/fluorescence; filed as Kd, often an IC50 or EC50 that approximates it; ≥ and ≤ were set here for values at or beyond the usual limits of such assays; conditions: source organism: Influenza A virus (A/Waikato/7/2000(H3N2))
[43] = source organism: Salmonella enterica subsp. enterica serovar Typhi
[44] = source organism: Stutzerimonas stutzeri
[45] = source organism: Shewanella sp. W3-18-1
[46] = source organism: Salmonella enterica subsp. enterica serovar Typhimurium
[47] = source organism: Mycobacterium tuberculosis variant bovis BCG str. Pasteur 1173P2
[48] = source organism: Mycobacterium tuberculosis str. Haarlem
[49] = source organism: Mycobacterium tuberculosis

AEFVFSCGI
Kd [1, 43]: ≥ 5 µM
Kd [2, 43]: ≥ 5 µM
Kd [3, 43]: ≥ 5 µM
Kd [4]: ≥ 5 µM
Kd [5]: 0.0084 µM

CRRLNTKYL
Kd ([6]; source organism: Aquifex aeolicus VF5): 0.173 µM

FYADPKRYF
Kd [7]: 0.008 µM
Kd ([8]; source organism: Mammarenavirus lassaense): ≥ 20 µM

GRGQILLGK
Kd [9, 44]: ≥ 20 µM
Kd [10, 44]: ≥ 20 µM
Kd [11]: ≥ 5 µM
Kd [12, 44]: 5.95 µM
Kd [13]: ≥ 20 µM
Kd [14, 44]: 0.321 µM
Kd [15, 44]: ≥ 20 µM
Kd [16, 44]: ≥ 20 µM
Kd [17, 44]: ≥ 20 µM
Kd [18]: ≥ 20 µM
Kd [19, 44]: ≥ 20 µM
Kd [20, 44]: ≥ 20 µM
Kd [21, 44]: ≥ 20 µM

IPAEFLENF
IC50 [22]: 1 µM

IPAKFLEGL
IC50 [22]: 7.1 µM

LMMSSPPPI
Kd [1, 45]: ≥ 5 µM
Kd [2, 45]: ≥ 5 µM
Kd [3, 45]: ≥ 5 µM
Kd [23]: 0.137 µM
Kd [24]: 0.0508 µM
Kd [12, 46]: 0.0123 µM
Kd [25]: ≥ 20 µM
Kd [19, 46]: 0.174 µM

LYSRSFWFF
Kd [26]: ≤ 0.0001 µM
Kd ([8]; source organism: Campylobacter jejuni): ≥ 20 µM
Kd [27]: 0.206 µM

NLLVTGFDT
IC50 [28]: 2.4 µM

RPRRASSPF
Kd [1, 47]: ≥ 5 µM
Kd [29]: 0.288 µM
Kd [2, 47]: 0.109 µM
Kd [3, 47]: ≥ 5 µM
Kd [10, 48]: ≥ 20 µM
Kd [30]: ≥ 20 µM
Kd [31]: 0.273 µM
Kd [12, 49]: ≥ 20 µM
Kd [32]: 9.95 µM
Kd [14, 49]: ≥ 20 µM
Kd [15, 49]: ≥ 20 µM
Kd [33]: ≥ 20 µM
Kd [16, 48]: 0.036 µM
Kd [17, 49]: ≥ 20 µM
Kd [34]: ≥ 20 µM
Kd [35]: ≥ 20 µM
Kd [36]: ≥ 20 µM
Kd [37]: 9.48 µM
Kd [19, 49]: ≥ 20 µM
Kd [38]: ≥ 20 µM
Kd [39]: ≥ 20 µM
Kd [40]: ≥ 20 µM
Kd [41]: ≥ 20 µM
Kd [20, 49]: ≥ 20 µM
Kd [21, 49]: ≥ 20 µM

SRFLRRPAQ
Kd ([9]; source organism: Burkholderia vietnamiensis G4): 0.67 µM

TIPEALAAV
IC50 [28]: 2.8 µM

YRTLLMNEL
Kd [42]: 0.0539 µM
Kd ([6]; source organism: Influenza A virus (A/Waikato/7/2000(H3N2))): 0.009 µM

Source: the Immune Epitope Database (IEDB)
